Results reported in patent US20140017242A1, “ANTI-BRADYKININ B2 RECEPTOR (BKB2R) MONOCLONAL ANTIBODY” (Diamedica, Inc., priority 2010, published 2014).
Values joined by “and” are separate entries in the source; they are usually repeats but may differ in a detail not shown here. Equal entries are not always repeated.

System: Sprague Dawley Rats
Experiment: Hyperinsulinemic-euglycemic clamp in Sprague Dawley rats
Assay type: in vivo, rat
Method: The hyperinsulinemic euglycemic clamp has been considered to as the standard in vivo technique for measuring insulin sensitivity effects of type 2 diabetes drugs. In this procedure, insulin is administered to a test animal to raise the insulin concentration, while glucose is infused to maintain euglycemia. The glucose infusion rate (GIR) needed to maintain euglycemia is a reflection of insulin action or improved insulin sensitivity. The bradykinin receptor agonist (anti-BKB2R) monoclonal antibody clone 5F12G1 was tested in a euglycemic clamp study to measure its ability to improve insulin sensitivity.
Healthy young male Sprague Dawley Rats weighing 275-300 g were used for the study (Harlan Laboratory, Indianapolis, USA). The rats were maintained in a controlled environment at a temperature of 70-72° F., humidity 30-70%, with a photo cycle of 12 hours of light and 12 hours of dark. They were provided with TEKLAD™ 2018-Global 18% diet and drinking water ad libitum. After seven days of acclimatization, rats were grouped in groups of four.
Animals were anesthetized with an intraperitoneal injection of ketamine-plus-xylazine cocktail and the right jugular vein and left carotid artery were catheterized externally through an incision in the skin flap. The catheterized animals were allowed to recover for five days. After five days of recovery, animals were fasted for six hours and a 120-minute hyperinsulimic-euglycemic clamp was applied with continuous infusion of human insulin (Humulin, Eli Lilly, Indianapolis, Ind.) at a constant rate of 4mU/kg/minute. […] Both insulin and glucose were infused through catheterized right jugular vein and blood glucose levels were monitored from the catheterized carotid artery. Arterial blood glucose levels and plasma insulin levels were measured prior to infusion at t=−120, −90, −30, −15 and 0 minutes and then at every 10 minutes for 120 minutes (t=120), using a Glucose meter (Accu-Chek™ Roche Diagnostics, Indianapolis, Ind.) and a rat insulin ELISA kit. […]

B1: 5F12G1: murine monoclonal anti-BKB2R antibody (IgG2b,κ), VH comprising SEQ ID NO:1, VL comprising SEQ ID NO:2 (antibody, listed as Mus musculus, V domains shown)
VH: EVKLEESGGGLVQPGGSMKLSCVVSGFTFSDYWMSWVRHSPEMGLEWVAEIRLKSDNYATHYAESVKGRFTISRDDSKSRLYLQINSLRGEDTGIYYCTRDYYAMEYWGQGTSVTVSS
VL: DVVMTQTPLSLPVSLGDQASISCRSSQTIVHSNGKTYLEWYLQKPGQSPKLLIYKVSNRFSGVPDRFSGSGSGTEFTLKISRVETEDLGVYYCFQASHVPYTFGGGTKLEIK
0.5 mg/kg i.m. at t=−30 min, 120-minute clamp
  increase in total glucose infusion rate AUC compared to vehicle: 179%
0.5 mg/kg i.m. at t=−30 min, t=60 min
  peak increase of glucose infusion rate compared to vehicle: 291%
0.5 mg/kg i.m., individual animals # 1-4
  Calculated Glucose Infusion Rate Area Under the Curve: 4560 mg/kg and 4317 mg/kg and 3243 mg/kg and 2685 mg/kg
